Measurements from patent publication US20210196828A1.

What was measured:
[1] = biological target: manY component of the mannose permease complex (E. coli) (UniProt P69801)
[2] = biological target: manZ component of the mannose permease complex (E. coli) (UniProt P69805)

Q: Which apparent titer of packaged phagemids in MG1655 and KEIO manY (log decrease in the apparent titer) [1] does the source give for Lambda gpH (Uniprot P03736) here?
A: The apparent titer of packaged phagemids in MG1655 and KEIO manY (log decrease in the apparent titer) was 2.

Q: What about the apparent titer of packaged phagemids in MG1655 and KEIO manZ (log decrease in the apparent titer) [2] of the same substance?
A: Its apparent titer of packaged phagemids in MG1655 and KEIO manZ (log decrease in the apparent titer) is 2.
